Laboratory results as given in the DeepSol protein solubility set.

test: soluble on expression in E. coli; label from the status in PepcDB or PDB records

Row | Sequence | soluble on expression in E. coli
1 | MSYDVIVRNGLWFDGTGRPPQVRTLGIRDGVVATVSAKPLDETGCPEVIDAGGKWVVPGFIDVHTHYDAEVLLDPGLRESVRHGVTTVLLGMCSLSTVYSDAEDAADLFSRVEAVPRQFVLGALESRKTWSNPAEYVAAIDALPLGPNIASLLGHSDLRASVLGLDRATTRGVVPTDDELETMADRLDAALDAGMLGMSGMDAAIDKLDGDRFRSRALPSTFATWRERRRLIKVLRKRGRILQSAPNVAKAQEALNFFLESSSLFGRRRGVRMSLLVSADAKSSPGAARVIGMGTRLLNKTLDAKVRFQHLPVPFELYSDGIDLPVFEEFGAGTAALHLRDQLERNKLLADPEYRRRFRRSFDRRKLGPTLWHRDFHDATIVECPDESLIGKTFGRIADERGIHPLDAFLDVLVDNGEKNVRWTTIVANHRPKVLDQLANDPAVHMGFSDAGAHLRNMAFYNYPLRLLKRVRDAQLSGRPFLTTERAVYRLTAEVADWFGVDAGTLREGDRADFVVIDPNCLNSDVDAYHEETVPFYGGLSRMVNRNDDAVVATAVNGTVVFGKGEFRDGYGDTVKSGRYLRAGADSRLKTAVLEHHHHHH | not soluble
2 | MKEFWVWVEPFDRKIVSVALEAGANAVVIPEKGRVEEVKKVGRITVIAPDGDLKLGEDVVYVLIKGKEDEERAAKYPPNVKVIVETTDWTVIPLENLIAQREELYAVVKNAQEAEVALQTLEKGVKGVVLKSRDINEIKKVGQIVSEHEEKLELVTIKITKILPLGLGDRVCVDTISLLHRGEGMLVGNSSGGMFLVHAETEENPYVAARPFRVNAGAVHMYIRVPNNRTKYLCELKAGDKVMVYDYKGRGRVTYVGRAKVERRPMLLIEGRYENKKLSCILQNAETIRLTKPDGTPISVSELKEGDEVLGYVEEAGRHFGMKVEETIIEKLEHHHHHH | soluble
3 | MNFDVAIIGGGLAGLTCAIALQQRGKRCVIINNGQAAIDFASGSLDLLSRMPSTTYGENRAVENLKENITALRNELPAHPYSLLGAEKVLAKAQDFERLANELHLDLIGSTEKNHWRVTGLGSLRGAWLSPNSVPTVQGNEPFPHKRIAVLGIEGYHDFQPQLLAANLVLNPQFEHCEVTSGFLNIPQLDELRKNAREFRSVNISQLLEHKLAFKDLVKEIIESAQGAEAVFLPACFGLENQEFMTALRDATKLALFELPTLPPSLLGMRQRIQLRHKFESLGGLMINGDSALNATFEGNQVRCINTRLLEDEEITADNFVLASGSFFSKGLISEFDKIYEPVFESDIIGVEGFNNKDRFTWTAHRFAHPQPYQSAGVAINAQCQVKKCGQFLTNLYAVGNVIGGFNALELGCGSGVAVVTALAVADEILAKLEHHHHHH | soluble
4 | MDVRELAIQQLKTVLDPELGINVVDLGLIYDLKIEDGHINVLMTLTTPGCPLHDSIAGGVKRALEQIDGVRDVRVQVTWNPPWTPERMSEEALRQLGHFS | not soluble
5 | MSNLRIAYDRLRSMSRTEENPTVQAMQIALHIPKNDPPARSEILQAAAQAVVACCLSEESVTDEWYGNRLQQWYDHRIRKVARRGRNAAWERVTTLPGVSSVSGSAEARAFVPGPVDSVDPLLKKLQISHTDVPFDSPADPTEGPVLYVDRGLGMSVGKTAAQVGHGSMLLAAAQPFEWVERWADQGYRLSVREVDSEVFRKAAEQPGAVHVIDAGFTEVAPSSLTVVALPMLLF | not soluble
6 | MATMDEKPLYGLERTVFRQLLHLFSRYADVIEKVILFGSRARGDYKEGSDIDLAIKFRKPGGPLYLLQSDLDELPIIYPIDVVDYNQIHNEQLKMNIDQEGKTIFQTNEHGKVMVTMSRLMDRFYDFERALSKLRQSAARDAQTDDLVVDATIQRFEFTYELAWKWMKLYLEHQGYAEVTSPRKTIREAFREGLIQDGETWLRMLEDRNRTSHTYDEETAMDIYERIRIHYIPLFDRLLDEMKQRLDSAT | not soluble
7 | MKNPCNVIAIIGKPRDQQAIQTHKELYEWLTSEGYKVFIDDRLAAILDEIPQNHFASLVELGKNADLAIVVGGDGNMLGAARILSRFDVPVIGVNRGNLGFLTDLNPDDFQAALKAVLAGEYIEEERFLLEAEVHRHGQIKSHNAALNEAVLHPGQIAHMIEFEVYIDESFAFSLRADGLIVSTPTGSTAYSLSGGGPILSPSLNAISLVPMFPHTLSSRPLVVDGKRRIKLIVSPENRGTQEVSCDGQVSLPVSPGDEIHIYQSPNVLKLIHPKDYSYYHVLRNKLGWSSKLFMAGDPLEHHHHHH | soluble
8 | MLDQVCQLARNAGDAIMQVYDGAKPMDVVSKADNSPVTAADIAAHTVIMDGLRTLTPDIPVLSEEDPPGWEVRQHWQRYWLVDPLDGTKEFIKRNGEFTVNIALIDHGKPILGVVYAPVMNVMYSAAEGKAWKEECGVRKQIQVRDARPPLVVISRSHADAELKEYLQQLGEHQTTSIGSSLKFCLVAEGQAQLYPRFGPTNIWDTAAGHAVAAAAGAHVHDWQGKPLDYTPRESFLNPGFRVSIY | not soluble
9 | MGSDKIHHHHHHMLILRARWWTNMCLICQRIDLIKKEENPYFVKELETGYLVVGDHQYFEGYSLFLAKEHVSELHHLKKETRLRFLEEMSLVQEAVAKAFAAEKMNIELLGNGDAHLHWHLFPRRTGDMNGHGLKGRGPVWWVPFEEMTAETCQAKPDEIKRLVKRLSSEVDKLLEIKE | not soluble
10 | MKPKAITFDFWGTLFTEGEAFLEKVMPARYEILLDALSEAGHPVDEAEVREAYRQASLAFEEAWKAGEHMPVYERVARIFALLGAPHDPGLIALTARRLEESSLLAPLKPLPGVEVLKDLAKKYPLAIVSDTGMTPGRLLREHLKRQGLDVFQAFSFSDETGFVKPKPEAFRVALEALGVAPEEALHVGDLPQTDIKGAFGTGYPWAVQYVGLREVNGEVRPTAKVKDHRELLSLLT | soluble
11 | GHMSSTPSNQNIIPIIKKESIVSLFEKGIRQDGRKLTDYRPLSITLDYAKKADGSALVKLGTTMVLAGTKLEIDKPYEDTPNQGNLIVNVELLPLAYETFEPGPPDENAIELARVVDRSLRDSKALDLTKLVIEPGKSVWTVWLDVYVLDYGGNVLDACTLASVAALYNTKVYKVEQHSNGISVNKNEVVGKLPLNYPVVTISVAKVDKYLVVDPDLDEESIMDAKISFSYTPDLKIVGIQKSGKGSMSLQDIDQAENTARSTAVKLLEELKKHLGI | soluble
12 | MGSDKIHHHHHHEEQKVCHMDDECVEVGQWQLGLALGYGERSNPVRDYDDIPIYLAPTLAYYGDRWFFDNGNLGYTLADEELFSVNLTTSFSSDSAYFYRWDPSNIFISGTSQLSSTPSAFTSRFQAFGAEPEPVFNELEDRKFTLLGGAEAFIYTPMGIINLALAHDLFDVHSGMEAKVKWLYNLSWTDWKFEFAAVANWKSEEIINYYYGVRPSENTYWSERYRAGSGTNLGLELTTQYIMSEHWELLFLVRYTDLADEITASPLVTESYTNTYFIGTAYRF | not soluble
13 | MAQQETPQDKRRRHARVDNVIYANFGAKTTVRTEPEAPEIVESRNFSPVALRIRDLATQEADAGRLKRGRDYARSGHVLNVKFGNSLITADVAGSQNLPFQVSIAFPYLSTDGLSQITQYIAASPDGLNAARHGQLSEDILDLLLGTQVTFRCDCPDHVVCCKHSVAVVTVASEKVEADPLLAFRLRGLDLAQLEQAVTMQARAASTQDLKERFWQGRDLPSLPEPKIAPALDDSDASLLHKAMRLVSYTNIDELRAVSDIEDIYYHLTHEKG | not soluble
14 | MKYEVVITSGNSNQAPIGAFFKGDFVTLHLYGGSHTFENLQKDGFYILNTCSPYLIAKSVLDDAGDYEYLDNDGIKIPYLKDSYKIELIEIKSRKIVETKNEFGSSKLMIVEGKPIFEKILNCNTSAYNRADGAVVEMAVLYSRKNMISKEEINDEITRLMKIIKKVGSKNHIELAKKLGVLEHHHHHH | not soluble
15 | MKIGLFYGSSTCYTEMTAEKIRAILGEELVDIHNVKESPLTLMSDYDLLLLGISTWDFGEIQEDWSAVWDHIGGVSLKNKYVALFGLGDQEGYGEWYLDAMGLLHDQIKKSGANLLGYWPNQGYHFEASKALTEDGSHFVGLALDEDSQYDLSDERIATWVEQVLTEYHDAI | not soluble
16 | MDYRVLLYYKYVTIDDPETFAAEHLKFCKEHHLKGRILVSTEGINGTLSGTKEDTDKYIEHMHADNRFADLTFKIDEAESHAFKKMHVRPRREIVALDLEEDINPREITGKYYSPKEFKAALEDENTVILDARNDYEYDLGHFRGAIRPDITRFRDLPEWVRNNKEQLDGKNIVTYCTGGIRCEKFSGWLVKEGFENVGQLHGGIATYGKDPETKGQYWDGKMYVFDERISVDVNQIDKTVIGKEHFDGTPCERYINCANPECNKQILVSEENEEKYLGACSYDCAKHERNRYVARHHISNEEWQRRLNNFKDVPEHTHA | not soluble
